Test results reported in US20160068860A1, “TRANSGENIC PLANTS” (CONSEJO SUPERIOR DE INVESTIGACIONES CIENTIFICAS (CSIC), priority 2013, published 2016).

Legend:
[1] = target: PYR/PYL receptors in the presence of clade A PP2Cs (ternary complexes); conditions: ternary complexes in the presence of certain clade A PP2Cs; read-out: Kd for ABA; cited from earlier work
[2] = target: dimeric PYR/PYL receptors; conditions: read-out: Kd for ABA; cited from earlier work
[3] = target: monomeric PYR/PYL receptors; conditions: read-out: Kd for ABA; cited from earlier work
[4] = target: T1, HAB1 (clade A protein phosphatase 2C) (Arabidopsis thaliana, UniProt Q9CAJ0 23-511, limits assumed); experiment: cell-based or functional assay
T1 sequence (looked up): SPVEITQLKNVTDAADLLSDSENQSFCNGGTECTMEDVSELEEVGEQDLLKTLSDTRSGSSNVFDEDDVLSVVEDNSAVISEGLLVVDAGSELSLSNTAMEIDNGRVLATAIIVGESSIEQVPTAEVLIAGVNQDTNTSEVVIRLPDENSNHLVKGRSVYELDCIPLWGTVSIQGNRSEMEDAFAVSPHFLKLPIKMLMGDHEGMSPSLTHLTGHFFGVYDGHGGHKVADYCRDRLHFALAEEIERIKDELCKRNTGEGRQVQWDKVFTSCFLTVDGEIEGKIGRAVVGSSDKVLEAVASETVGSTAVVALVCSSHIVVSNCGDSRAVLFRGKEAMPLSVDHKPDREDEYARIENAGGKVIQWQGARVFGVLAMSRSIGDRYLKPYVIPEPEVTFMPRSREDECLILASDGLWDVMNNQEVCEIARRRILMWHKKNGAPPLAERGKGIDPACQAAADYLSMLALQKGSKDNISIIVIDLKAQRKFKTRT

[5] = target: T2, PP2CA (clade A protein phosphatase 2C, At3g11410) (Arabidopsis thaliana, UniProt P49598 1-399, limits assumed); experiment: cell-based or functional assay
T2 sequence (looked up): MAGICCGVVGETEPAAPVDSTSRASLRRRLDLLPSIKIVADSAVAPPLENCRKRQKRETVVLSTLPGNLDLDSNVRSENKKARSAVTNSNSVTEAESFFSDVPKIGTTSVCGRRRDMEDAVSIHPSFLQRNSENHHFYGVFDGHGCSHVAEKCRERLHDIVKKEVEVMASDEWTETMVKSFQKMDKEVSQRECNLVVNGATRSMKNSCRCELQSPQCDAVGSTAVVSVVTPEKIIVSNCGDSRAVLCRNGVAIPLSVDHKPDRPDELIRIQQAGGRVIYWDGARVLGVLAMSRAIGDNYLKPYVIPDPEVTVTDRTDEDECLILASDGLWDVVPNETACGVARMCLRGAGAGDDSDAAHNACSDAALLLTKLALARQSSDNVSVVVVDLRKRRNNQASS

PP2CA [6] = experiment: Yeast two hybrid (Y2H) growth assay with PP2CA; type: cell-based, Arabidopsis; conditions: for interaction with PP2CA in Y2H assay: absence of ABA, growth on medium lacking His and Ade
Experimental: We conducted error-prone PCR mutagenesis by amplification of the PYL4 open reading frame using the following primers: FPYL4Ncol, 5″-GCAGCAGCCATGGTTGCCG TTCACCGTCCTTCT and RPYL4EcoRIstop: […] TCT TCTTCTT, and the following conditions: 2 mM dGTP, dCTP and dTTP, 0.5 mM dATP, 12 mM MgCl2 and Taq polymerase. The PCR product was Ncol-EcoRI doubly digested, cloned into the pGBKT7 vector and DH10B cells were transformed by electroporation. Thus, we generated an allele library in E. coli of approximately 10,000 PYL4 mutant clones. […] The library was shuttled to yeast AH109 by co-transformation with pGAD7-PP2CA. Yeast transformants were pooled and clones able to grow in the absence of exogenous ABA in medium lacking histidine and adenine were selected. Yeast plasmids were extracted, sequenced and retransformed in yeast cells to recapitulate the phenotype. Protocols for yeast two hybrid assays were similar to those described previously (Saez et al., 2008).

PP2CA [7] = target: T3, PP2CA (Arabidopsis thaliana, UniProt O80920+P49598, C176R/F130Y); experiment: In vitro phosphatase activity assay with pNPP substrate, PP2CA; type: biochemical; conditions: presence of ABA
T3 construct: made in house; host or cells: E. coli BL21 (DE3)
Experimental: (§1) Phosphatase activity was measured using as a substrate either pNPP or phosphorylated ΔC-ABF2, ΔC-ABI5 and SLAC11-186 proteins. For the pNPP substrate, assays were performed in a 100 μl solution containing 25 mM Tris-HCl pH 7.5, 2 mM MnCl2 and 5 mM pNPP. Assays contained 2 μM phosphatase (PP2CA or HAB1), 4 μM receptor and the indicated concentrations of ABA. Phosphatase activity was recorded with a ViktorX5 reader at 405 nm every 60 seconds over 30 minutes and the activity obtained after 30 minutes is indicated in the graphics. In order to obtain phosphorylated ΔCABF2, ΔC-ABI5 and SLAC11-186 proteins, OST1 phosphorylation assays were done basically as described previously (Dupeux et al., 2011 b). ΔC-ABF2 and SLAC11-186 N-terminal fragments were prepared as described (Antoni et al., 2012; Vahisalu et al., 2010). ΔC-ABI5 recombinant protein (amino acid residues 1-200, containing the C1, C2 and C3 target sites of ABA-activated SnRK2s) was expressed in the pETM11 vector as described above. The reaction mixture containing the OST1 kinase and either ΔCABF2, ΔC-ABI5 or SLAC11-186 recombinant proteins were incubated for 50 min at room temperature in 30 μl of kinase buffer: 20 mM Tris-HCl pH 7.8, 20 mM MgCl2, 2 mM MnCl2, and 3.5 μCi of γ-32ATP (3000 Ci/mmol). Thus, OST1 was autophosphorylated and in turn it phosphorylated ΔC-ABF2, ΔC-ABI5 and SLAC11-186 proteins. Next, they were used as substrates of PP2CA that was preincubated (or not) for 10 with PYL4 or PYL4A194T (1:10 phosphatase:receptor ratio) either in the absence or presence of 30 μM ABA. The reaction was stopped by adding Laemmli buffer and the proteins were separated by SDS-PAGE using an 8% acrylamide gel and transferred to an Immobilon-P membrane (Millipore). Radioactivity was detected and quantified using a Phosphorimage system (FLA5100, Fujifilm). After scanning, the same membrane was used for Ponceau staining. The data presented are averages of at least three independent experiments.

PP2CA [8] = experiment: as above; type: biochemical, Arabidopsis; conditions: absence of ABA
Experimental: as §1

[9] = target: T2, PP2CA (clade A protein phosphatase 2C, …); experiment: yeast two-hybrid growth assay, presence of ABA
[10] = test system: Arabidopsis thaliana plants; experiment: Seedling establishment and early seedling growth of OE lines on ABA; type: in vivo; conditions: 0.25 or 0.5 μM ABA
Excerpt: PYL4 or PYL4 mutants were cloned into pCR8/GW/TOPO entry vector (Invitrogen) and recombined by LR reaction into the gateway compatible ALLIGATOR2 vector (Bensmihen et al., 2004). This construct drives expression of PYL4 under control of the 35S CaMV promoter and introduces a triple HA epitope at the N-terminus of the protein. Selection of transgenic lines is based on the visualization of GFP in seeds, whose expression is driven by the specific seed promoter At2S3. The ALLIGATOR2-35S:3HA-PYL4 or mutant constructs were transferred to Agrobacterium tumefaciens C58C1 (pGV2260) (Deblaere et al., 1985) by electroporation and used to transform Columbia wild type plants by the floral dip method. T1 transgenic seeds were selected based on GFP visualization and sowed in soil to obtain the T2 generation. At least three independent transgenic lines were generated for each construct. Homozygous T3 progeny was used for further studies and expression of HA-tagged protein in 21-d-old seedlings was verified by immunoblot analysis using anti-HA-peroxidase (Roche).
After surface sterilization of the seeds, stratification was conducted in the dark at 4° C. for 3 d. Approximately 100 seeds of each genotype were sowed on MS plates supplemented with different ABA concentrations per experiment. To score seed germination, radical emergence was analyzed at 72 h after sowing. Seedling establishment was scored as the percentage of seeds that developed green expanded cotyledons and the first pair of true leaves at 7-d.

[11] = target: T2, PP2CA (clade A protein phosphatase 2C, …); experiment: yeast two-hybrid growth assay, absence of ABA
[12] = target: T4, PYL4C176R F130Y (AtPYL F130Y and C176R)
T4 chain: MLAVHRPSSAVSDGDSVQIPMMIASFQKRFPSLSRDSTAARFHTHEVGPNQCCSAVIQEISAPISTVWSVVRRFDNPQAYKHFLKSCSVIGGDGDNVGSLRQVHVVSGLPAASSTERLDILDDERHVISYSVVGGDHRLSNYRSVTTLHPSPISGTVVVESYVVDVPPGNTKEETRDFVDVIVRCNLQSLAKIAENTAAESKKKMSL

[13] = target: T5, PYL4H82R V97A (AtPYL H82 and V97A)
T5 chain: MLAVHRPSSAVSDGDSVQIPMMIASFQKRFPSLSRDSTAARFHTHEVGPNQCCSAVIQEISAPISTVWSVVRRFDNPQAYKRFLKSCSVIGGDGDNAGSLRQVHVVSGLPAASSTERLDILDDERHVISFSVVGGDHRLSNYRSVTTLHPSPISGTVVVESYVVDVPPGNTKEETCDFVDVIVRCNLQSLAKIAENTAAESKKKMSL

Molecule: CC1=CC(=O)CC(C)(C)[C@@]1(O)/C=C/C(C)=C\C(=O)O [ABA, abscisic acid]
- Kd [1]: 0.03 to 0.06 µM
- Kd [2]: > 50 µM
- Kd [3]: ~1 µM

B1: AtPYL4 wild type polypeptide (At2g38310) (receptor)
chain: MLAVHRPSSAVSDGDSVQIPMMIASFQKRFPSLSRDSTAARFHTHEVGPNQCCSAVIQEISAPISTVWSVVRRFDNPQAYKHFLKSCSVIGGDGDNVGSLRQVHVVSGLPAASSTERLDILDDERHVISFSVVGGDHRLSNYRSVTTLHPSPISGTVVVESYVVDVPPGNTKEETCDFVDVIVRCNLQSLAKIAENTAAESKKKMSL
- IC50 of inhibition of HAB1 phosphatase activity (pNPP substrate; 2 µM phosphatase, 4 µM receptor, ABA concentration varied) [4]: 0.25 µM
- IC50 of inhibition of PP2CA phosphatase activity (pNPP substrate; 2 µM phosphatase, 4 µM receptor, ABA concentration varied) [5]: 1 µM

B2: PYL4C176R F130Y: AtPYL4 mutant polypeptide with F130Y and C176R substitutions (SEQ ID NO. 63) (protein, listed as Arabidopsis thaliana)
chain: MLAVHRPSSAVSDGDSVQIPMMIASFQKRFPSLSRDSTAARFHTHEVGPNQCCSAVIQEISAPISTVWSVVRRFDNPQAYKHFLKSCSVIGGDGDNVGSLRQVHVVSGLPAASSTERLDILDDERHVISYSVVGGDHRLSNYRSVTTLHPSPISGTVVVESYVVDVPPGNTKEETRDFVDVIVRCNLQSLAKIAENTAAESKKKMSL
- interaction with PP2CA in Y2H assay (PP2CA [6]): enhanced the interaction of PYL4 and PP2CA in the absence of ABA
- capacity to inhibit PP2CA (PP2CA [7]): lower capacity to inhibit PP2CA
- effect on PP2CA activity (PP2CA [8]): did not affect PP2CA activity

B3: PYL4V97A (AtPYL V97A) (receptor)
chain: MLAVHRPSSAVSDGDSVQIPMMIASFQKRFPSLSRDSTAARFHTHEVGPNQCCSAVIQEISAPISTVWSVVRRFDNPQAYKHFLKSCSVIGGDGDNAGSLRQVHVVSGLPAASSTERLDILDDERHVISFSVVGGDHRLSNYRSVTTLHPSPISGTVVVESYVVDVPPGNTKEETCDFVDVIVRCNLQSLAKIAENTAAESKKKMSL
- interaction with PP2CA in Y2H assay (PP2CA [6]): did not affect the interaction in the absence of ABA
- yeast growth in Y2H assay with PP2CA (PP2CA [6]; presence of ABA (50 μM)): increased yeast growth
- binding result [9]: binds
- ABA-mediated inhibition of seedling establishment [10]: enhanced ABA-mediated inhibition of seedling establishment compared to non-transformed plants

B4: PYL4C176R F130Y (AtPYL F130Y and C176R) (receptor)
chain: MLAVHRPSSAVSDGDSVQIPMMIASFQKRFPSLSRDSTAARFHTHEVGPNQCCSAVIQEISAPISTVWSVVRRFDNPQAYKHFLKSCSVIGGDGDNVGSLRQVHVVSGLPAASSTERLDILDDERHVISYSVVGGDHRLSNYRSVTTLHPSPISGTVVVESYVVDVPPGNTKEETRDFVDVIVRCNLQSLAKIAENTAAESKKKMSL
notes: also called F130Y C176R
- binding result [11]: binds

B5: PP2CA (clade A protein phosphatase 2C, At3g11410) (protein)
chain: MAGICCGVVGETEPAAPVDSTSRASLRRRLDLLPSIKIVADSAVAPPLENCRKRQKRETVVLSTLPGNLDLDSNVRSENKKARSAVTNSNSVTEAESFFSDVPKIGTTSVCGRRRDMEDAVSIHPSFLQRNSENHHFYGVFDGHGCSHVAEKCRERLHDIVKKEVEVMASDEWTETMVKSFQKMDKEVSQRECNLVVNGATRSMKNSCRCELQSPQCDAVGSTAVVSVVTPEKIIVSNCGDSRAVLCRNGVAIPLSVDHKPDRPDELIRIQQAGGRVIYWDGARVLGVLAMSRAIGDNYLKPYVIPDPEVTVTDRTDEDECLILASDGLWDVVPNETACGVARMCLRGAGAGDDSDAAHNACSDAALLLTKLALARQSSDNVSVVVVDLRKRRNNQASS
- PP2CA phosphatase activity (pNPP substrate) in the absence of ABA [12]: although the H82RV97A and F130Y C176R mutations promoted ABA-independent interactions in Y2H assay, they did not affect PP2CA activity in the absence of ABA
- PP2CA phosphatase activity (pNPP substrate) in the absence of ABA [13]: although the H82RV97A and F130Y C176R mutations promoted ABA-independent interactions in Y2H assay, they did not affect PP2CA activity in the absence of ABA
